Results taken from patent US6033894A, “Kaposi's Syndrome Herpesvirus protease and assembly protein compositions and methods” (The Regents of the University of California, priority 1998, dated 2000).
Where a chain is given by its changes, count along the chain named. In names and notes the source's numbering stands. Entries after “also recorded” stand apart in the source; their conditions may differ. Peptide text beside a SMILES is read from it. * marks the point of attachment. Boc = CC(C)(C)OC(=O)*; CH2Cl = ClC*

Key:
[1] = biological target: T1, KSHV protease Pr(S204G), an autolytically stable variant (Human herpesvirus 8 strain GK18, UniProt Q2HRB6, S204G); experiment: Fluorometric enzyme assay, inhibition of KSHV protease; assay type: biochemical, Kaposi's Sarcoma Herpesvirus (KSHV); conditions: 0.5 μM enzyme Pr(S204G), 300 μM inhibitor, 15 min pre-incubation, 20 μM fluorogenic substrate
T1 construct: S204G, untagged, recombinant in E. coli; source DNA from pulmonary KS tumor clone
T1 sequence (Q2HRB6 1-230 A226V): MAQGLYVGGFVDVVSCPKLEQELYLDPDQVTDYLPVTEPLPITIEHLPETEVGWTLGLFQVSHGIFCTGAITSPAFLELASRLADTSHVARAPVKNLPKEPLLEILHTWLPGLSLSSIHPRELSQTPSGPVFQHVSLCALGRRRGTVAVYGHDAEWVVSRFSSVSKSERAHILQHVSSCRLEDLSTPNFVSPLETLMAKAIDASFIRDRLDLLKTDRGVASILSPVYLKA

[2] = biological target: fluorogenic peptide substrate DABCYL-Arg-Gly-Val-Val-Asn-Ala-Ser-Ser-Arg-Leu-Ala-EDANS (HCMV)
[3] = tested on: HCMV M-site peptide substrate DABCYL-[…]-EDANS; experiment: Continuous fluorometric assay of cleavage of fluorogenic peptide substrate; assay type: biochemical; conditions: for increase in fluorescence intensity (F/Fo) from peptide hydrolysis: 1.5 μM enzyme, 10 μM substrate, pH 5.5, 37° C., by five hours; for proteolytic activity relative to KSHV Pr: assayed according to the method of Example 5; for rate of hydrolysis of HCMV substrate relative to 1.5 μM wild-type KSHV Pr: 1 μM trypsin D102N or 1 nM trypsin vs 1.5 μM KSHV Pr, one-hour time course
Method: Such activities can be determined by comparing the activity of a KSHV PR, as defined herein, to that of the KSHV Pr having the sequence SEQ ID NO:7. For example, in experiments carried out in support of the present invention, recombinantly produced His6 -KSHV Pr and variant His6 -KSHV Pr(S114A) proteins were tested for ability to cleave a synthetic peptide substrate. The substrate, containing the HCMV M-site peptide sequence RGVVNASSRLA (SEQ ID NO:15) flanked by a fluorogenic donor-acceptor pair, allows for continuous monitoring of peptide hydrolysis due to fluorescence enhancement arising from donor-acceptor separation (Holskin, et al., 1995). This substrate contains an internal Arg residue, allowing for cleavage by trypsin, an extremely well-characterized serine protease.
Protease assays using the fluorogenic peptide substrate DABCYL-Arg-Gly-Val-Val-Asn-Ala-Ser-Ser-Arg-Leu-Ala-EDANS, where RGVVNASSRLA (SEQ ID NO:15) was obtained from BACHEM (King of Prussia, Pa.), were monitored optically by a Perkin-Elmer LS-5B luminescence spectrophotometer interfaced with a Macintosh SE-30 computer. DABCYL represents 4-(4'-Dimethylaminophenylazo)benzoic acid, and EDANS signifies (2'-aminoethylamino)-naphthalene-1-sulfonic acid. His6 -Pr and His6 -Pr(S114A) were diluted 10-fold from storage buffer into assay buffer (50 mM NaOAc (pH 5.5), 20% (v/v) glycerol, 0.1 mM EDTA, 0.1 mM DTT), equilibrated to 37° C. for 5 minutes in thermostatted quartz cuvettes, and manually mixed with a final substrate concentration of 10 μM. A pH 5.5 buffer was utilized due to slightly higher proteolytic activity than that observed in pH 7.5 Tris-based solutions. The final KSHV Pr concentrations were 1.5 μM. Time-evolved fluorescence enhancement was followed by exciting the samples at 355 nm and detecting emission at 495 nm. Trypsin and its D102N variant (Craik, et al., 1987) were diluted into the same assay buffer to final concentrations of 1 nM and 1 μM, respectively, and treated identically to the KSHV enzymes. The ratio of fluorescence at each time point (F) was then compared with the initial fluorescence output (FO) to generate plots of F/FO vs. time.

[4] = biological target: fluorogenic peptide substrate DABCYL-Arg-Gly-Val-Val-Asn-Ala-Ser-Ser-Arg-Leu-Ala-EDANS (HCMV); remark: listed apart in the source
[5] = tested on: KSHV-infected B-cell line, BCBL-1; experiment: Northern blot of KSHV AP and Pr/AP transcripts in BCBL-1 cells; assay type: cell-based; set-up: production of 0.95 kb AP transcript / production of 0.95 kb and 2.3 kb transcripts: dose or concentration left out as unconfirmed
Description: The KSHV-infected B-cell line, BCBL-1, was employed for transcription of the KSHV Pr/AP and AP genes during lytic infection. This cell line harbors the viral genome in latent form, and treatment of these cells with TPA induces lytic replication (Renne, et al., 1996). Equivalent amounts of poly(A)-enriched RNA from uninduced or induced BCBL-1 cells in the presence or absence of phosphoroformic acid (PFA), an inhibitor of herpesviral DNA replication, were separated on a formaldehyde/agarose gel, transferred to a membrane, and hybridized to a probe derived from the 1.5 kb fragment containing the Pr/AP ORF of KSHV, as detailed in Example 6.
BCBL-1 cells (Renne, et al., 1996) were treated with phosphoroformic acid (PFA) at a concentration of 500 mM for at least 3 days prior to induction. Untreated and PFA treated cells were then split into identical flasks, at 3×10^5 cells/ml, and left unstimulated or induced with 12-O-tetradecanoyl phorbol-13-acetate (TPA) at a concentration of 20 ng/ml. After 48 hours, total RNA was harvested using RNAzol B as recommended by the manufacturer (Tel-Test, Friendwood, Tex.). To enrich the polyadenylated RNA fraction, 300 μg RNA samples, uninduced and induced with TPA, and with and without PFA treatment, were affinity purified using the Oligotex mRNA purification system (Qiagen, Chatsworth, Calif.). RNA was separated on a 1% agarose, 17% formaldehyde gel, transferred to Hybond-N nylon membrane in 10× SSC for 5 hours, and UV-crosslinked. The 1.5 kb insert from pBS1.5 was gel purified and labelled using the rediPrime Random Prime kit (Amersham Corporation, Arlington Heights, Ill.). Hybridization was performed as according to standard methods (Renne, et al., 1996), and the blot was exposed to Kodak XAR5 film for 8 hours.

`CC(C)C[C@H](NC(=O)[C@H](Cc1ccc(O)cc1)NC(=O)OC(C)(C)C)C(=O)N[C@@H](CCCCN)C(=O)N[C@@H](C)C(=O)CCl` [Boc-YLKA-COCH2 Cl] (Boc-YLKA-CH2Cl) was tested, and the “inhibition of protease activity” value [1] was “Complete inhibition”.

In the case of “trypsin D102N (from UniProt P00763) (enzyme)”, the fluorescence enhancement (F/Fo) from hydrolysis of the fluorogenic peptide (fold faster than KSHV Pr) [2] is reported as 2.

With “KSHV Pr: recombinant KSHV protease (SEQ ID NO:7) with amino-terminal His6 tag, expressed in E. coli” the “increase in fluorescence intensity (F/Fo) from peptide hydrolysis” value [3] was “nearly three-fold increase”.

Work on KSHV His6-Pr (enzyme) yielded a fluorescence enhancement (F/Fo) from hydrolysis of the fluorogenic peptide (fold increase in fluorescence intensity) [4] of 3.

For `CCCCCCCCCCCCCC(=O)O[C@@H]1[C@@H](C)[C@@]2(O)[C@@H](C=C(CO)C[C@]3(O)C(=O)C(C)=C[C@@H]23)[C@@H]2C(C)(C)[C@]12OC(C)=O` [TPA, 12-O-tetradecanoyl phorbol-13-acetate], the “production of 0.95 kb AP transcript upon lytic induction” value ([5]; BCBL-1 cells, TPA 20 ng/ml, 48 hours) was “strongly upregulated”.

In the case of `O=C(O)P(=O)(O)O` [PFA, phosphoroformic acid], the “production of 0.95 kb and 2.3 kb transcripts” value ([5]; TPA-induced BCBL-1 cells) is reported as “strongly inhibited” and the “production of 0.95 kb AP transcript” value ([5]; uninduced BCBL-1 cells) is reported as “strongly inhibited”.

B1: S114A variant: KSHV protease variant in which the active-site Ser-114 was converted to Ala (protein)
chain (part 1 of 2): MRGS
chain (part 2 of 2): GSAQGLYVGGFVDVVSCPKLEQELYLDPDQVTDYLPVTEPLPITIEHLPETEVGWTLGLFQVSHGIFCTGAITSPAFLELASRLADTSHVARAPVKNLPKEPLLEILHTWLPGLALSSIHPRELSQTPSGPVFQHVSLCALGRRRGTVAVYGHDAEWVVSRFSSVSKSERAHILQHVSSCRLEDLSTPNFVSPLETLMAKAIDASFIRDRLDLLKTDRGVASILSPVYLKA
B1 was tested, and the “increase in fluorescence intensity (F/Fo) from peptide hydrolysis” value [3] was “minimal enhancement” and the “proteolytic activity relative to KSHV Pr” value [3] was 1/10.

B2: Pr(S204G): KSHV protease variant engineered to stabilize the enzyme against autoproteolysis, expressed without His6 tag (protein)
chain: T1 sequence (Q2HRB6 1-230 A226V) with S204G
In the case of B2, the “proteolytic activity relative to KSHV Pr” value [3] is reported as “essentially the same activity as Pr; also recorded: substantially the same activity as Pr”.

B3: trypsin D102N: trypsin in which the active site Asp residue has been replaced with Asn (protein)
chain: IVGGYTCQENSVPYQVSLNSGYHFCGGSLINDQWVVSAAHCYKSRIQVRLGEHNINVLEGNEQFVNAAKIIKHPNFDRKTLNNDIMLIKLSSPVKLNARVATVALPSSCAPAGTQCLISGWGNTLSSGVNEPDLLQCLDAPLLPQADCEASYPGKITDNMVCVGFLEGGKDSCQGDSGGPVVCNGELQGIVSWGYGCALPDNPGVYTKVCNYVDWIQDTIAAN
In the case of B3, the “rate of hydrolysis of HCMV substrate relative to 1.5 μM wild-type KSHV Pr” value [3] is reported as 2 fold and the “catalytic efficiency relative to trypsin” value ([3]; under the conditions used herein) is reported as “roughly 5000 fold”.

B4: trypsin: extremely well-characterized serine protease used for comparison (protein)
chain: B3 chain
With B4 the “rate of hydrolysis of HCMV substrate relative to 1.5 μM wild-type KSHV Pr” value [3] was “substantially more active than the KSHV enzyme”.
